Data from the DeepSol protein solubility set.

Assay: soluble on expression in E. coli; label from the status in PepcDB or PDB records

Row | Sequence | soluble on expression in E. coli
1 | GAMGMNGIDDLLNINDRIKQVQNERNELASKLQNLKQSLASNDTGGGSGGGSDSSDLLQREAILANELNILDNLKTFLNLIKEVKTNLNILELENCYYSLQSLRKKMRNNAAYLKQSFNFQQSISTYVDTLHLELVSTLYKILTNGFWKITENSIQFTPTVEWGKDKVHIEYDTFMDFVAQQYFPKGSLDNQAWFILDMTSADSQEQVRAKLNTIMKEYMNLSRIVSMIKNSIFISGKEISYENEKNILVFSKSSSHGQHCVSTVLTSFEAVCDFMLDGLAFRDRKTLSYELGPLFNTEFTKFVKNNASIILESLDSPLKNLVSVINNKLTRLVAKSEVTNWTHSGKEIQDLLMN | soluble
2 | MTVKQTVEVTNKLGMHARPAMKLFELMQGFDAEVLLRNDEGTEAEANSVIALLMLDSAKGRQIEIEATGPQEVEALAAVIALFNSGFDED | not soluble
3 | MATIGTFKKSGNEFSGEIVTLSVQAKGVRIVPESNRSGDNAPSHRVYVGRAEIGAAWSKTSNEGREYLGLKLDDPSFTAPIYANLFDDEEGDTFSLIWSRAAKRNGD | not soluble
4 | TRGHGLFRITLVERDGPVGAGIAYATREAEHLLNTRVHNMSAFPDRPDHFRQWLAAEPEGRFSTGDSFVPRGLYRRYLEEILAPWRAGAQLTCVGGECLRIEEVGRGVIAHFSDGSVRLADVAILATGHPRPDPAEDRLLQDPWRAADVPPDARVVLLGSGLTMIDKVLTLLANGHRGEI | not soluble
5 | SSQPDPTPEQLNKSSQFTGVMGNLRCLYDNHFVEGTNVRSTGQLLQHDLIFPIKDLKLKNYDSVKTEFNSKDLATKYKNKDVDIFGSNYYYNCYYSEGNSCKNAKKTCMYGGVTEHHRNQIEGKFPNITVKVYEDNENILSFDITTNKKQVTVQELDCKTRKILVSRKNLYEFNNSPYETGYIKFIESSGDSFWYDMMPAPGAIFDQSKYLMLYNDNKTVSSSAIAIEVHLTKK | soluble
6 | MGSDKIHHHHHHMTIMDWNTIKGLVPVSGVQPDFVNCLDAFPVLKRAKETPQEPRYHGEGDVWTHTMMVIESLLQLPDYQTATREQQEILFFAALLHDVAKYRTTVIDPVTGQIGQPGHSRKGAIDARVLLWDADVPFAIREAICRLIAVHQVPFYCLEDERRRVSPIFTIRELSWQLSIPLLATLAEADIRGRICQDQTRVLDSIELFRELAREEGCYGQPRAFVDAHTRLSYFRGADVHPDYPLFQEPGSKVTVMCGLPASGKDTWVRTHRHDLPVVSFDDARTELGLKHGENEGKAVHWATDKARSLLRTHEPFVWNATHLSQQMRTRTLDLCYAYGAEVEIVYLERPRQELLRRNGKRDTTLSNKTLQGMLTKWELPSPTEAHVVRYES | not soluble
7 | MKKLQIAVGIIRNENNEIFITRRAADAHMANKLEFPGGKIEMGETPEQAVVRELQEEVGITPQHFSLFEKLEYEFPDRHITLWFWLVERWEGEPWGKEGQPGEWMSLVGLNADDFPPANEPVIAKLKRL | soluble
8 | MALKDRFDKIISYFDTDDVSENEVHEVQERTSVQRDSRAATAQEASQRSHMTNSAEEEMIGSRPRTYTYDPNRQERQRVQRDNAYQQATPRVQNKDSVRQQREQVTIALKYPRKYEDAQEIVDLLIVNECVLIDFQYMLDAQARRCLDYIDGASRVLYGSLQKVGSSMFLLTPANVMVDIEEMNIPKTGQETSFDFDMKRRLEHHHHHH | not soluble
9 | MSLAEPDDDWLHVEGTNIVDKYGNKVWITGANWFGFNCRERMLLDSYHSDIIADIELVADKGINVVRMPIATDLLYAWSQGIYPPSTDTSYNNPALAGLNSYELFNFMLENFKRVGIKVILDVHSPETDNQGHNYPLWYNTTITEEIFKKAWVWVAERYKNDDTIIGFDLKNEPHTNTGTMKIKAQSAIWDDSNHPNNWKRVAEETALAILEVHPNVLIFVEGVEMYPKDGIWDDETFDTSPWTGNNDYYGNWWGGNLRGVKDYPINLGKYQSQLVYSPHDYGPIVYEQDWFKGDFITANDEQAKRILYEQCWRDNWAYIMEEGISPLLLGEWGGMTEGGHPLLDLNLKYLRCMRDFILENKYKLHHTFWCINIDSADTGGLFTRDEGTPFPGGRDLKWNDNKYDNYLYPVLWKTEEGHHHHHH | not soluble
10 | MLNYLFENNCLLCGKEVSPLRSLCENCEEKVLKNGPSFYREVHRKYELFVYSDYTDEIERIIRLYKYHGEVSLSGTLVKLFLKLYSYFPREANLITWVPSSLDSLEDRGFDHMRLLAKRISKELGIPFDAVLENVSEGRQVEKSKEERKRTGRFICKKDPPQNVILIDDVLTTGTSVRDCVETLFRNGVSKVFVYVLAKTRR | not soluble
11 | SLTDRLERKLAIAANQDKADLLIKNGQIVDVFQLETFEGDVVIADGEIVAISDPGTYEAHEEVDAKGAFIAPAFIDGHVHIESSMVAPEQFAKVVVPHGVTTVIADPHEIANVAGVQGVEYMLDASEGIPLDVKMMVPSCVPATPFEHSGARLTAEEVAELFRDPRIFGLGEVMDYPAVLTRDQEMMAKLKAAHSEGRIVDGHGAGLDSVALNAYTAAGIGNDHEAVTPEEAKARLQRGMYLLIREGTAAKDFDALMKAITPMNSRRALFVTDDKHLDELVEEGSIDHHVRKAIQIGVNPLQAIQMASLNAAECFKLAKKGAIAPGFTADLLFIEDLQSLAITHVFKNGTCVAKNGKLIVPIRETVQPPQRLLESVNMKLVTKEQLELSLQSDEEAHLIQIQPGSIVTKHIREKVAVKDGVFIPSVARDQLKLVVAERHHKRGTVGVGIVKGFGLTKGAIATTVAHDSHNIVAVGTNDEDLLAAIKELENIQGGMTIVKDGKVLVSLPLTIGGLMSDQSYDVVCEQIKSVDAAIGALGFVGDFNPFLTLSFLALPVIPEIKLTDQGLFDVTSFSFIDQQVYAEETN | soluble
12 | MPTPAYMRIEGEKQGLITAGTFTEDSVGNIYQEGHEDEVLVQGFEHQVLLPRDPQSGQPTGQRVHKPVRITKVFDKASPLMYNALTSGEKLPKVEIKWYRTSATGTQEHYFTTVLHDAIIVDITASMPNCQDPSQAHFTHLEDVFMTYRAIDWTHEVAGTSGNDDWRTAMKA | soluble
13 | MSLLSRSVKRELVGKSAQMEQIRSHVAQYALLNRHVVIVGESGCGRHTIAYLIHQLTTNNGHLPWVELVASAKTEWSTVEPKVQESAGGTLLIDHIELLSEEVQRNVVQSLLNQERLNRPRTRVIAVIDQPPEQLIAQNQLLPELYYLLNQGQIDVPLLRQRPDDIAALFHYFLKQSCYKLGKPMPNVEPHYLALLRAHQWPGNVRELRNVAELYAIGIVKLAGKERLYNQEEMLSPLDELVDDYEKQVIEDALFLFSGRVADAANYLQVPRKKLYLRMKKHGLEKDAFKAREGHHHHHH | not soluble
14 | MAHHHHHHMPKYYCEYCDIYLTHSSPVGRRQHIHGRKHISAKIEYFQNLLREEGITPQNFLGFLNNRNINNPLGNPMMNYMNPNMYMKYNPMKSYHSYSMRSSHPYRLNIHNNKYSRAGYVPPSHHKYSVNPMHNNYHQAHNNYSYPNSINPSNQINYSNNYGSNNFNNSNEFNKNMNEKDNINNNDIHDNKVKTDENDPINNDNLNNTRNFSYEENHYSTDHKKPSFLNPENSKEHIESDIS | not soluble
15 | MGSDKIHHHHHHMILSKTGIRHKEDLVPPANGVDVGIIKIGDGRVMSVTTDPFYFDPVFGYEDSAWFAYHILASDLLTSGANPDYMTVDLNLPLSMTDEEISRMWNAFTEEAARFGTSIITGHTARYAGTSFPMIGGITAMGFIGEDEYVTSAMARPGDKVVLTKTPAIEAAALLTRLFPGTIKAKLGDELFSYGVDLFRKLTTVHESLVCKRFGLRTRVTAMHDVTEGGLLGALFEIADSSGNGIRIHEDSIKVDDYVKRVCSIFSIDPLMAISEGALLITVKPDHAEDLVSSLKANGIDANVIGEMTADPSERIIVGREKRTIGPPQKDPFWTAVEFGISEDWK | not soluble
16 | MSGKRALITGIRGQDGAYLAKLLLEKGYEVYGADRRSGEFASWRLKELGIENDVKIIHMDLLEFSNIIRTIEKVQPDEVYNLAAQSFVGVSFEQPILTAEVDAIGVLRILEALRTVKPDTKFYQASTSEMFGKVQEIPQTEKTPFYPRSPYAVAKLFGHWITVNYREAYNMFACSGILFNHESPLRGIEFVTRKITYSLARIKYGLQDKLVLGNLNAKRDWGYAPEYVEAMWLMMQQPEPDDYVIATGETHTVREFVEKAAKIAGFDIEWVGEGINEKGIDRNTGKVIVEVSEEFFRPAEVDILVGNPEKAMKKLGWKPRTTFDELVEIMMEADLKRVRDREVSV | soluble
